T1: TRB4 (Arabidopsis thaliana, UniProt F4I7L1 1-296)
T1 sequence: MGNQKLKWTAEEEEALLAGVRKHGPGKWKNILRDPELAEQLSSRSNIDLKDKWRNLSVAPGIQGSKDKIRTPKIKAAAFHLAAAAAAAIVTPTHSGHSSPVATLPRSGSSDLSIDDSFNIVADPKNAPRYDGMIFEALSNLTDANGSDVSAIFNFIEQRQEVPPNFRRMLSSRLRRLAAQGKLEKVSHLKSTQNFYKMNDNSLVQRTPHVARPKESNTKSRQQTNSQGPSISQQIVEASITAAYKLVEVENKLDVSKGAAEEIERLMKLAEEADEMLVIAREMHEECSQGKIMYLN

T2: TRB5 (Arabidopsis thaliana (Col-0), UniProt F4IEY4 1-287)
T2 sequence: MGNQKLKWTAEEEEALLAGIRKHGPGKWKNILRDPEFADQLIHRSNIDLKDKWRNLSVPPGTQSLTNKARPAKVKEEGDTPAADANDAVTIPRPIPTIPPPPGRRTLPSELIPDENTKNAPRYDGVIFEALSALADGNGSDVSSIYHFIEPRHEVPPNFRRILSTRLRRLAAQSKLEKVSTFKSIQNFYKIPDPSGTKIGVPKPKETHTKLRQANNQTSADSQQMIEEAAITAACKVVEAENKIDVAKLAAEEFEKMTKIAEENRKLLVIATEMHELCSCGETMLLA

T3: TRB1 (Arabidopsis thaliana, UniProt Q8VWK4 1-300)
T3 sequence: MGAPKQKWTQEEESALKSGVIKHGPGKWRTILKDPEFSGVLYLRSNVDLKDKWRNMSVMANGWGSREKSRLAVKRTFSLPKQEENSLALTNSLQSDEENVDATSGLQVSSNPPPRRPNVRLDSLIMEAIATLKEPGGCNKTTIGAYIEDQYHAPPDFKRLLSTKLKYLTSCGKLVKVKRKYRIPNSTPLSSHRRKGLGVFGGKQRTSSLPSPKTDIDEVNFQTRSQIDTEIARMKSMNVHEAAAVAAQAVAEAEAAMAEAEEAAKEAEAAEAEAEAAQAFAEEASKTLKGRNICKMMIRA

B1: telomeric (four plant telomeric repeats) (dsDNA)
DNA 1: AAACCCTAAACCCTAAACCCTAAACCCT
DNA 2: AGGGTTTAGGGTTTAGGGTTTAGGGTTT
B2: telo-box (dsDNA)
DNA 1: TTTTTCACGAAAACCCTAATCGCAGTCG
DNA 2: CGACTGCGATTAGGGTTTTCGTGAAAAA

Columns and labels:
TRB4 [1] = molecular target: T1, TRB4; test: EMSA; high-molecular-weight complex not entering the gel; resists 100x non-telomeric competitor; 10 mM Tris-HCl pH 8.0, 1 mM EDTA, 1 mM DTT, 50 mM NaCl, 5% glycerol; 10 pmol protein, 1 pmol probe, on ice 20 min; 7.5% PAGE, 0.5x TBE, 15 C; settings: protein: recombinant; tags: His-tag (pHGWA); chain copies: 2; label: 32P 5'-end; blunt
TRB5 [2] = molecular target: T2, TRB5; test: as above; settings: protein: recombinant; tags: His-tag (pHGWA); chain copies: 2; label: 32P 5'-end; blunt
TRB1 = molecular target: T3, TRB1; test: as above; settings: protein: recombinant; tags: His-tag (pHGWA); label: 32P 5'-end; blunt
TRB4 [3] = molecular target: T1, TRB4; test: EMSA; non-telomeric competitor 1-100x; 10 mM Tris-HCl pH 8.0, 1 mM EDTA, 1 mM DTT, 50 mM NaCl, 5% glycerol; 10 pmol protein, 1 pmol probe, on ice 20 min; 7.5% PAGE, 0.5x TBE, 15 C; settings: protein: recombinant; tags: His-tag (pHGWA); chain copies: 2; label: 32P 5'-end; blunt
TRB5 [4] = molecular target: T2, TRB5; test: as above; settings: protein: recombinant; tags: His-tag (pHGWA); chain copies: 2; label: 32P 5'-end; blunt

Binder | binding result (TRB4 [1]) | binding result (TRB5 [2]) | binding result (TRB1) | binding result (TRB4 [3]) | binding result (TRB5 [4])
B1 | binds | binds | binds |  | 
B2 |  |  |  | binds | binds
